Test results: PMC8121154, “The effects of pH and NaCl concentration on the structure of β‐casein from buffalo milk” (Food Science & Nutrition, 2021)

Target: the molecule itself
Assay: dynamic light scattering; purified β‐CN in 10 mM sodium phosphate buffer at pH 5.5 and pH 5.0, room temperature; aggregates, micelles of 100 nm at pH 5.0

B1: native β‐casein purified from buffalo milk (natural protein, buffalo (purified from buffalo milk), UniProt Q9TSI0 16-224, looked up)
chain: RELEELNVPGEIVESLSSSEESITHINKKIEKFQSEEQQQMEDELQDKIHPFAQTQSLVYPFPGPIPKSLPQNIPPLTQTPVVVPPFLQPEIMGVSKVKEAMAPKHKEMPFPKYPVEPFTESQSLTLTDVENLHLPLPLLQSWMHQPPQPLPPTVMFPPQSVLSLSQSKVLPVPQKAVPYPQRDMPIQAFLLYQEPVLGPVRGPFPIIV
notes: β‐casein of buffalo milk (water buffalo), native protein purified from milk; single band of approximately 25 kDa on SDS-PAGE; Native milk protein; also called β‐CN; buffalo β‐CN
  binding result: binds
